Experimental findings from paper doi:10.1101/2021.06.15.448513 are described below.

The experiment addresses PaPlaB, phospholipase B of Pseudomonas aeruginosa PA01 (gene pa2927) (P. aeruginosa PA01). As to the kind of experiment: SEC-MALS.

The substance “PaPlaB, phospholipase B of Pseudomonas aeruginosa PA01 (gene pa2927) (enzyme)” had a stoichiometry N of 7.

Broadly, the stoichiometry N is the number of molecules, sites or subunits per partner or assembly.
